Earlier results as cited in paper PMC7060279.

Legend:
[1] = target: TLR4/MD2 (Homo sapiens) (UniProt O00206)
[2] = target: TLR4 (Homo sapiens) (UniProt O00206)
Chain of TLR4 (Homo sapiens) (O00206 24-839): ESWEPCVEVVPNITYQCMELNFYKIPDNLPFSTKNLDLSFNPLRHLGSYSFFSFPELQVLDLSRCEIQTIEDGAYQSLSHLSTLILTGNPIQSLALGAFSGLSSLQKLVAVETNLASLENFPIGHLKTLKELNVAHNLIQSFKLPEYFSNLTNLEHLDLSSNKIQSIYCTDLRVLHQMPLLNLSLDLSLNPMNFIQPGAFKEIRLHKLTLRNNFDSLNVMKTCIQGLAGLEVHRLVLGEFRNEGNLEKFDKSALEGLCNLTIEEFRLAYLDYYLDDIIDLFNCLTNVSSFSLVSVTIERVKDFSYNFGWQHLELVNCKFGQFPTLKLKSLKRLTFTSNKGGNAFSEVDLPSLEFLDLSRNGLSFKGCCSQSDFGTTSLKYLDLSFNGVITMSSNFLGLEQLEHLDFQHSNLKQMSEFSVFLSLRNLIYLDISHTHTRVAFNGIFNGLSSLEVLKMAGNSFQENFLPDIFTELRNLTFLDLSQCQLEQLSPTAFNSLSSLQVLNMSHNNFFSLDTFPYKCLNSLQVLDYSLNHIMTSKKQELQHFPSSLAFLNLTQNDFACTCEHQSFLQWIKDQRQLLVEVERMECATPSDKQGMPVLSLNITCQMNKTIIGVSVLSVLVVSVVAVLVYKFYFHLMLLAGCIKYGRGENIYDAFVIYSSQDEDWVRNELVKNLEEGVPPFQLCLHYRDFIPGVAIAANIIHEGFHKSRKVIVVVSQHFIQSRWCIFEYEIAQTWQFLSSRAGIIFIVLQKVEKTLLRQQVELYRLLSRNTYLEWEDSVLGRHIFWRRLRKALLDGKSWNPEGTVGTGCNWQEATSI

Chain of HMGB1 (P09429 whole entry): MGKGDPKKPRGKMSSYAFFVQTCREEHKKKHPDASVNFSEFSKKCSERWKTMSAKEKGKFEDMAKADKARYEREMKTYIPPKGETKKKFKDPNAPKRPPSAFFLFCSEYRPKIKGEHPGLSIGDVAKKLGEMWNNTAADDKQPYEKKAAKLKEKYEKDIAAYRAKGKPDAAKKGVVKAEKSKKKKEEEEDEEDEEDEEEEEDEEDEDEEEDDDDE
Chain of TLR4/MD2 (Homo sapiens) (O00206 24-839, chain 1 of 2): as the sequence (O00206 24-839) above
Chain of TLR4/MD2 (Homo sapiens) (Q9Y6Y9 19-160, chain 2 of 2, further chain): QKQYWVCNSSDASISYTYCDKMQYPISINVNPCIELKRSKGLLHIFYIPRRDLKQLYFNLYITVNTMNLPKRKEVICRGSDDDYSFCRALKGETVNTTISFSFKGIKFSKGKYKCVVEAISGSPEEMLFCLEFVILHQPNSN

HMGB1 (from UniProt P09429)
Kd [1]: 420 nM | Kd [2]: 650 nM
